Data reported in the DeepSol protein solubility set.

Assay: soluble on expression in E. coli; label from the status in PepcDB or PDB records

| Sequence | soluble on expression in E. coli |
| --- | --- |
| MKKTLTVTLSSIAAFIAINTAANAQESETSQLDTYATGDVITNQSNLGIYIVKPGDSLYKIALEHNLSLEELYALNPGVEPLIFPGDEIVVSETAFEQFNNTNTFVNYETNYIPVGYNNVSTDTSNTTYDNYDSESTDTYSVSNAYDGLRSVSNSGNLYTTGQCTYYAFDRRAELGKPIGSLWGNASNWAYSANQAGFNVDHTPEVGAVFQSGPGQNGAGAYGHVGVVESINSNGSVTVSEMNWNGGVNVKSYRTISNPNSYNYIHLEHHHHHH | not soluble |
| MKKVSPSYLKHQFLIAMPHMHDENFAQTLTYVVEHNANGAMGLVINRPQSLTLADVLEQLRPELPAPKRCQEIAIHAGGPVQTDRGFVLHPSGQTFQATVDLPGGISLSTSQDVLFSIADGYGPDQNVITLGYAGWDAGQLDAEMADNAWLTCSFDPAILFDVDSDQRLDAAARRLGINLALISTQAGHAAAALEHHHHHH | not soluble |
| MKKVVTVCPYCASGCKINLVVDNGKIVRAEAAQGKTNQGTLCLKGYYGWDFINDTQILTPRLKTPMIRRQRGGKLEPVSWDEALNYVAERLSAIKEKYGPDAIQTTGSSRGTGNETNYVMQKFARAVIGTNNVDCCARVCHGPSVAGLHQSVGNGAMSNAINEIDNTDLVFVFGYNPADSHPIVANHVINAKRNGAKIIVCDPRKIETARIADMHIALKNGSNIALLNAMGHVIIEENLYDKAFVASRTEGFEEYRKIVEGYTPESVEDITGVSASEIRQAARMYAQAKSAAILWGMGVTQFYQGVETVRSLTSLAMLTGNLGKPHAGVNPVRGQNNVQGACDMGALPDTYPGYQYVKDPANREKFAKAWGVESLPAHTGYRISELPHRAAHGEVRAAYIMGEDPLQTDAELSAVRKAFEDLELVIVQDIFMTKTASAADVILPSTSWGEHEGVFTAADRGFQRFFKAVEPKWDLKTDWQIISEIATRMGYPMHYNNTQEIWDELRHLCPDFYGATYEKMGELGFIQWPCRDTSDADQGTSYLFKEKFDTPNGLAQFFTCDWVAPIDKLTDEYPMVLSTVREVGHYSCRSMTGNCAALAALADEPGYAQINTEDAKRLGIEDEALVWVHSRKGKIITRAQVSDRPNKGAIYMTYQWWIGACNELVTENLSPITKTPEYKYCAVRVEPIADQRAAEQYVIDEYNKLKTRLREAALA | soluble |
| MKKWKVRSALVALIVLLAGCSSNAQYNSSASGNVGTAWGGDVHSTVQGVSAERAWRDPAEMIVISYSTNVPSGYDRVYSIRINELEYAIRDGNFNSLPITRVYDSSNNEPRYIVHARVGMNYQLYVRNYSRNTNYEIVATVDGLDVLNGKQGSLNNNGYIVNAGDSLAIKGFRKDKHTEAAFQFANVADSYAANSAQGDVRNTGVIGFAAFELQGQAQNALPPCSGQAFPADNNGYAPPPCRK | not soluble |
| MKLAAKTFTPSTADLPFTDAGASEDSGMANKPGEPAFQLWLDVKKVVFPTTSEPSYVNLRLHNPTDKRITFKVRCTSAELFRVQPPIAFINAGATVNLVMWSANTHLQPEKKHYFAFYHKNASPSARQSPPLWKDGLKDAEGVRRIPVVFLPPSS | not soluble |
| MKLAAMIKKMCPSDSELSIPAKNCYRMVILGSSKVGKTAIVSRFLTGRFEDAYTPTIEDFHRKFYSIRGEVYQLDILDTSGNHPFPAMRRLSILTGDVFILVFSLDNRDSFEEVQRLRQQILDTKSCLKNKTKENVDVPLVICGNKGDRDFYREVDQREIEQLVGDDPQRCAYFEISAKKNSSLDQMFRALFAMAKLPSEMSPDLHRKVSVQYCDVLHKKALRNKKLLRAGSGGGGGDPGDAFGIVAPFARRPSVHSDLMYIREKASAGSQAKDKERCVIS | soluble |
| MKLALVNRQVILPESGTESFQCHASTLVRLPCGTLVAAWFAGLREGSEDTAIWLSRYEHNIWTTPQRVAAREGEAHWNPVLFYPSDKLWLFYKVGSDVHVWKTWFITSSDRGFTWSTPAPLVNDDILPRGPVKNKLLLASNGAWIAPGSIESPERWRAFVDRSSDEGKHWSISFVPLEPDNAISGTNVALWDGIKKGRLWECCLENLLRWDGVIQPTLWESSPGHIHMLLRSTRGAIFRSDSIDYGATWSVARATSLPNNNSGIDLVSMQDGTLILALNPVNGNWGKRYPLSLIASQDNGESWLPLLDLESDHGEYSYPAIISEGGIVHITYTWNRKNIVYCRLQTVLEHHHHHH | not soluble |
| MKLAVLGTGMIVKEVLPVLQKIDGIDLVAILSTVRSLTTAKDLAKAHHMPLATSKYEAILGNEEIDTVYIGLPNHLHFAYAKEALLAGKHVICEKPFTMTAGELDELVVIARKRKLILLEAITNQYLSNMTFIKEHLDQLGDIKIVECNYSQYSSRYDAFKRGDIAPAFNPKMGGGALRDLNIYNIHFVVGLFGRPKTVQYLANVEKGIDTSGMLVMDYEQFKVVCIGAKDCTAEIKSTIQGNKGSLAVLGATNTLPQVQLSLHGHEPQVINHNKHDHRMYEEFVAFRDMIDQRDFEKVNQALEHSRAVMAVLERAVHS | not soluble |
| MKLHTLVSCLHDFPVVPKENPEITSIEADSRKVKEGSLFVCMKGYTVDSHDFAKQAAAQGAAAIVAERPIDVDVPVVLVKNTFRSLAVLADYFYGQPTHKLHLIGITGTNGKTTTSHIMDEIMRAHGHKTGLIGTINMKIGDETFEVKNTTPDALTLQQTFAKMVEHGVDSTVMEVSSHALDLGRVHGCDYDVAVFTNLTQDHLDYHKTMEEYKHAKGLLFAQLGNSYNHNREKYAVLNNDDAVTVEYMRSTAATVVTYGIDTTSDVMAKDIAMTSGGTTFTLVTPYESVNVTMKLIGKFNVYNVLAATAAGLVSGVSLETIIDVIKELAGVPGRFEVVDGGQNYTVIVDYAHTPDSLENVLKTAKQFAKGDVYCIVGCGGDRDRTKRPIMASVATQYATHAIYTSDNPRSEDPAAILDDMVHGANGNNYEVIIDRKEAIHHAITKAKADDIIIIAGKGHETYQIIGKDVHHFDDREVAKEAITERLNNEE | not soluble |
| MKLIAVLNLLNQLSNKNSLEEYLNGVIDFLSGWTGCENIGIRVLREAGLAPYVVHRGFDKDFIASESCISVEGDECVCLRVLKQQFKSEDQDHISAAGTYYAPNFYRYVEELREDQLLNFRGLCAHKQFKSLAVIPLLHQGKVVGAIHIADIKDGVFSEEDIHFIETIRPLVAEAIYRHNLEKALEHHHHHH | not soluble |
| MKLLAITSCPNGIAHTYMAAENLQKAADRLGVSIKVETQGGIGVENKLTEEEIREADAIIIAADRSVNKDRFIGKKLLSVGVQDGIRKPEELIQKALNGDIPVY | not soluble |
| MKLMDVRVSGLNVWITDKHILKGISFKAQPGTVTAIMGPSGSGKSTLIRVINRLIDLIPGARVEGEVWINNMNVMKEDPYNIRRYTGMVFQEPNPFPHMTIYENVAIGPKLHGLAKNKKELDEIVEWALKMAHLWDEVKDRLSDYPHQLSGGQRQRLSLARALALKPRVLLLDEPTANIDPVSTVKIEQSIVEYAKEEMATVIIVTHTPQQAARISDQILFLYEGRVIEYGPTKELVLRPRHELTKKFLGGEV | soluble |
| MKLMFASDIHGSLPATERVLERFAQSGARWLVILGDVLNHGPRNALPEGYAPAQVAERLNAVATQIIAVRGNCDSEVDQMLLHFPITAPWQQILTQERRLFLTHGHLFGPTNLPALHTGDVLVYGHTHLPVAQQQEGLYHFNPGSVSIPKGGYAASYGILDDNVLSVIALNDQSIIAQVAINS | not soluble |
| MKLNKLFDSKTVVFKKSDKYGKSDCCKTKCVEGQIEFGVKIPTDFPAFNRALVTFLKTQKNQLNVDLDSFVELYKAENLCYKTALKVVVASITFCETTPFTMKTEPQKNVEVAVKCDSEHTSLIKEYEV | not soluble |
| MKLQTTYPSNNYPIYVEHGAIKYIGTYLNQFDQSFLLIDEYVNQYFANKFDDILSYENVHKVIIPAGEKTKTFEQYQETLEYILSHHVTRNTAIIAVGGGATGDFAGFVAATLLRGVHFIQVPTTILAHDSSVGGKVGINSKQGKNLIGAFYRPTAVIYDLDFLKTLPFKQILSGYAEVYKHALLNGESATQDIEQHFKDREILQSLNGMDKYIAKGIETKLDIVVADEKEQGVRKFLNLGHTFGHAVEYYHKIPHGHAVMVGIIYQFIVANALFDSKHDISHYIQYLIQLGYPLDMITDLDFETLYQYMLSDKKNDKQGVQMVLMRQFGDIVVQHVDQLTLQHACEQLKTYFK | soluble |
| MKLRANIIEKRGTLQVIVSYKDSNGKIRQKWKDTKLKKKGNKKRAEKIRDEFLLELESQLAMECECANPDLLFYDYLLNYLEVSKKQVAFNTYVGYKHYVHNRIYKFFYPKKIKLNRLKPYHLQDFYQYMLNDDCTANTVIHYHAFIRKALQEAVITELISTNVADKVRKPKKKQFVSQVYNQHEILKLLDILSEEKLYLVVLLTAFYGLRRSEVLGLKWSAIDFLNKKIMINHVIIENPENMSQLIKKDQTKNSSSYRTLPLVETIERALVNQAKWQQDNRILLGEDYILKDSEYVFTMEDGRLMKPQYVTHRLSKLIKKNGLKKIRFHDLRHSNASIMLDSGQNMKSIQEWLGHASYSTTANLYTHLTAGVKERAAEALENAFGFKE | not soluble |
| MKLSATIAIILLNWNGWRDTVDCVESCRKLDYPNFRIVIVDNGSTDGSEAILRERFPDVELIQTGANLGFAGGNNAGIRHALVRGADYVWLLNNDTVVEPGALGALVRVAESDPRVGMVGSKIVYFDDPWLLWFAGAVIDPERPHRPFHRGLHERDTGQYDRVAETGYVTGCSLLARREMMAEVGMLDDDLFLYFEDADWSARAARAGWKLLYVPDSVVRHKESVSSGGAASPRLVYYTARNRLYFVRRNFPAKLAAALCYDLFEHVLVNVKKGRFPLAVAGCRGIRDFLAGKIGPMPLEHHHHHH | soluble |
| MKLSAYHKARGGLVEWWNPKNHYDLVYKSRVFTDTYSKDTIAVTNADAVILGGTGYDLGENLPDAVEHTRPDAALYPQFSDTAYGFLSRGCPRNCGFCIVSGKEGRRSRKVADLSEFWDGQKEIKLLDANLLACPDHEALILQLAESRAWVDFSQGLDIRLITPDNVALLNRVRTRAVHFAWDNPDEDLTGYFRRFLELTAIKSDRKRRVYVLTNYGSTHEQDLYRVETLRGMGYDPYVMVYDRPAAPKITRQLQRWVNNKRIFYTVKNFADYIPNRTGGIT | not soluble |
| MKLSKIKLPYFMNELTLTELDMGVAVPKILQAFKPYVDHQGLWIDLEMSYNGSFLMTLETKMNLTKLGKEPLVEALKVGEIGKEGCRPRAFCLADSDEESSSAGSSEEDDAPEPSGGDKQLLPGAEGYVGGHRTSKIMRFVDKITKSKYFQKATETEFIKKKIEEVSNTPLLLTVEVQECRGTLAVNIPPPPTDRVWYGFRKPPHVELKARPKLGEREVTLVHVTDWIEKKLEQEFQKVFVMPNMDDVYITIMHSAMDPRSTSCLLKDPPVEAADQP | not soluble |
| MKLTGKQTWEFENPLFVNSSGTAVGPKEKEGPLGHLFDKSYDEMHCNQKNWEMAERKLMEDAVQSALSKQNLKKEDIDIFLAGDLLNQNVTANYVARHLKIPFLCLFGACSTSMESIAISSALIDGGFAKRALAATSSHNATAERQFRYPTEYGGQKPGTATSTVTGSGAVVLSQQPGGIKITSATVGRVIDLGITDSQDMGSAMAPAAADTIKQHLEDLGRTPDDYDLILTGDLSGVGSPILKDLLKEEGINVGTKHNDCGLMIYTPDQQVFAGGSGCACSAVVTFAHIFKEIEAGRLNRVLVVATGALLSPTIIQQKESIPCIAHGVVFERAERGNALEHHHHHH | soluble |
